Publication PMC2910053

Target: Cy3B-SSB (W88C SSB labeled with Cy3B, one per monomer) W89C (UniProt P0AGE0)
Assay: bulk fluorescence

With ssDNA (unspecified, bulk assay) the Kd was under 2.5 nM.
